Data on 1 molecule can be found in patent publication US20200230173A1 (US Dept. of Health and Human Services, published 2020).

The target of the test is T1, human TNFR2-Fc fusion protein (human, UniProt P20333 23-257).
T1 construct: not shown: Fc part
T1 sequence (looked up): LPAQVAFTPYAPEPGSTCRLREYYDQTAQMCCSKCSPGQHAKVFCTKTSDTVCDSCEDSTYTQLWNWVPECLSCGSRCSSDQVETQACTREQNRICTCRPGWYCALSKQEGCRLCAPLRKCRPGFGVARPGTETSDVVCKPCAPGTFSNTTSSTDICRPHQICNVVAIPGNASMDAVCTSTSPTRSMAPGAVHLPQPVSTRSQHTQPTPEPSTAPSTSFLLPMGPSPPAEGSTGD
The test is described as follows: selection from a phage display scFv library on human TNFR2-Fc.

B1: human TNFR2-specific monoclonal antibody E4 (antibody, V domains shown)
VH: QITLKESGPTLVKPTQTLTLTCTFSGFSLTTSGVGVGWIRQPPGKALEWLALIYWDDDKRYSPSLKSRLTITKDTSKNQVVLTMTNMDPVDTATYYCAHLDGSGSLDYWGQGTLVTVSS
VL: QSVLTQPPSASGTPGQRVTISCSGSTSNIGRNSVNWYSHLPGAAPKLLISGNDQRPSGVPDRFSGSKSDNTASLTVSGLQAEDEAHYYCSSSAANLGVFGGGTKLTVLG
Regarding B1, the binding result is “binds”.
